Reference: patent US11697815B2, “Regulation of gene expression through aptamer-modulated polyadenylation” (MeiraGTx UK II Limited, priority 2016, dated 2023)
Positions count from the first letter of the chain named.

B1: 87-9: 9-nt truncated U1 site at −87 in pRL-SV40 (nucleic acid)
DNA: TCAAATCGTTCGTTGAGCGAGTTCTCAAAAATGAACAATAATTCTAGAGCGGCCGCTTCGAGCAGACATGATAAGATACATTGATGAGTTTGGACAAACCAGGTAAGTCAACTAGAATGCAGTGAAAAAAATGCTTTATTTGTGAAATTTGTGATGCTATTGCTTTATTTGTAACCATTATAAGCTGCAATAAACAAGTTAACAACAAC
modifications: in pRL-SV40; 87-9 in pRL-SV40
notes: 9-nt truncated U1 site at −87 in pRL-SV40
B2: 2×U1-140 wt: 2 copies of wild type U1 binding sequence at −140 in pRL-SV40 (nucleic acid)
DNA: TCAAATCGTTCGTTGAGCGAGTTCTCAAAAATGAACAATAATTCTAGACAGGTAAGTAACCAAACAGGTAAGTAGCGGCCGCTTCGAGCAGACATGATAAGATACATTGATGAGTTTGGACAAACCACAACTAGAATGCAGTGAAAAAAATGCTTTATTTGTGAAATTTGTGATGCTATTGCTTTATTTGTAACCATTATAAGCTGCAATAAACAAGTTAACAACAAC
modifications: in pRL-SV40; 2xU1-140 wt in pRL-SV40
B3: U1-87 mut: 10-nt mutant U1 binding sequence at −87 in pRL-SV40 (nucleic acid)
DNA: TCAAATCGTTCGTTGAGCGAGTTCTCAAAAATGAACAATAATTCTAGAGCGGCCGCTTCGAGCAGACATGATAAGATACATTGATGAGTTTGGACAAACCATGGAACTACAACTAGAATGCAGTGAAAAAAATGCTTTATTTGTGAAATTTGTGATGCTATTGCTTTATTTGTAACCATTATAAGCTGCAATAAACAAGTTAACAACAAC
modifications: in pRL-SV40; U1-87 mut in pRL-SV40
B4: U1-87 wt: 10-nt consensus U1 binding sequence 87 nt upstream of poly(A) signal in 3′ UTR of pRL-SV40 (nucleic acid)
DNA: B3 DNA with T102G, G104T, C107G
modifications: in pRL-SV40; U1-87 wt in pRL-SV40
B5: U1 87-9 SL broken: control sequence in which no stem is formed, in pRL-SV40 (nucleic acid)
DNA: TCAAATCGTTCGTTGAGCGAGTTCTCAAAAATGAACAATAATTCTAGAGCGGCCGCTTCGAGCAGACATGATAAGATACATTGATGAGTTTGGACAAACCAAACCCAGGTAAGTTACCGAAAAAAACAAACAAAAAACAACTAGAATGCAGTGAAAAAAATGCTTTATTTGTGAAATTTGTGATGCTATTGCTTTATTTGTAACCATTATAAGCTGCAATAAACAAGTTAACAACAAC
modifications: in pRL-SV40; U1 87-9 SL broken in pRL-SV40
B6: U1_theo_8: U1 site stem linked to theophylline aptamer in pRL-SV40, stem truncation series (nucleic acid)
DNA: TCAAATCGTTCGTTGAGCGAGTTCTCAAAAATGAACAATAATTCTAGAGCGGCCGCTTCGAGCAGACATGATAAGATACATTGATGAGTTTGGACAAACCAAACCCAGGTAAGTGATACCAGCCGAAAGGCCCTTGGCAGCACTTACCTGGGCAACTAGAATGCAGTGAAAAAAATGCTTTATTTGTGAAATTTGTGATGCTATTGCTTTATTTGTAACCATTATAAGCTGCAATAAACAAGTTAACAACAAC
modifications: in pRL-SV40; U1_theo_8 in pRL-SV40
notes: U1 site stem linked to theophylline aptamer in pRL-SV40, stem truncation series
B7: U1_theo_8_1: sequential stem mutation of U1_theo_8 in pRL-SV40 (nucleic acid)
DNA: B6 DNA with G152A
modifications: in pRL-SV40; U1_theo_8_1 in pRL-SV40
B8: U1_theo_9: U1 site stem linked to theophylline aptamer in pRL-SV40, stem truncation series (nucleic acid)
DNA: TCAAATCGTTCGTTGAGCGAGTTCTCAAAAATGAACAATAATTCTAGAGCGGCCGCTTCGAGCAGACATGATAAGATACATTGATGAGTTTGGACAAACCAAACCCAGGTAAGTATACCAGCCGAAAGGCCCTTGGCAGACTTACCTGGGCAACTAGAATGCAGTGAAAAAAATGCTTTATTTGTGAAATTTGTGATGCTATTGCTTTATTTGTAACCATTATAAGCTGCAATAAACAAGTTAACAACAAC
modifications: in pRL-SV40; U1_theo_9 in pRL-SV40
notes: as for B6
B9: 3×U1-140 wt: 3 copies of wild type U1 binding sequence at −140 in pRL-SV40 (nucleic acid)
DNA: TCAAATCGTTCGTTGAGCGAGTTCTCAAAAATGAACAATAATTCTAGACAGGTAAGTAACCAAACAGGTAAGTAACCAAACAGGTAAGTAGCGGCCGCTTCGAGCAGACATGATAAGATACATTGATGAGTTTGGACAAACCACAACTAGAATGCAGTGAAAAAAATGCTTTATTTGTGAAATTTGTGATGCTATTGCTTTATTTGTAACCATTATAAGCTGCAATAAACAAGTTAACAACAAC
modifications: in pRL-SV40; 3xU1-140 wt in pRL-SV40
B10: U1 87-9 SL: 9 nt U1 site embedded in a stem-loop structure in pRL-SV40 (nucleic acid)
DNA: TCAAATCGTTCGTTGAGCGAGTTCTCAAAAATGAACAATAATTCTAGAGCGGCCGCTTCGAGCAGACATGATAAGATACATTGATGAGTTTGGACAAACCAAACCCAGGTAAGTTACCGAAAGGTAACTTACCTGGGCAACTAGAATGCAGTGAAAAAAATGCTTTATTTGTGAAATTTGTGATGCTATTGCTTTATTTGTAACCATTATAAGCTGCAATAAACAAGTTAACAACAAC
modifications: in pRL-SV40; U1 87-9 SL in pRL-SV40
notes: 9 nt U1 site embedded in a stem-loop structure in pRL-SV40
B11: U1-140 mut: mutant U1 binding sequence at −140 in pRL-SV40 (nucleic acid)
DNA: TCAAATCGTTCGTTGAGCGAGTTCTCAAAAATGAACAATAATTCTAGACATGGAACTAGCGGCCGCTTCGAGCAGACATGATAAGATACATTGATGAGTTTGGACAAACCACAACTAGAATGCAGTGAAAAAAATGCTTTATTTGTGAAATTTGTGATGCTATTGCTTTATTTGTAACCATTATAAGCTGCAATAAACAAGTTAACAACAAC
modifications: in pRL-SV40; U1-140 mut in pRL-SV40
B12: U1-140 wt: consensus U1 binding sequence at −140 in pRL-SV40 (nucleic acid)
DNA: B11 DNA with T51G, G53T, C56G
modifications: in pRL-SV40; U1-140 wt in pRL-SV40

Assays:
[1] = system: Renilla luciferase expression; assay: Renilla luciferase assay of HEK 293 cells transfected with pRL-SV40 constructs carrying U1 binding sites in the 3′ UTR; assay type: cell-based; conditions: for suppressive effect of U1 site on luciferase gene expression (in words): no ligand; for reduction fold (luciferase activity of mutant construct / wild type construct): compared to corresponding mutant construct; for inhibition of Renilla luciferase expression/activity: compared to pRL-SV40 control vector
Method: Plasmid constructs: oligonucleotides (oligos) containing either wild type consensus U1 binding sequence or its mutant sequence were synthesized (IDT). The synthesized oligos were cloned into the 3′ UTR of the pRL-SV40 luciferase expression vector (Promega) using Gibson Assembly Cloning Kit (NEB). Constructs were purified (Qiagen) and verified by DNA sequencing (Genewiz).
(§1) Transfection: 3.5×10^4 HEK 293 cells were plated in a 96-well flat bottom plate the day before transfection. Plasmid DNA (500 ng) was added to a tube or a 96-well U-bottom plate. Separately, TransIT-293 reagent (Mirus; 1.4 μl) was added to 50 μl Opti-mem I media (Life Technologies), and allowed to sit for 5 minutes at room temperature (“RT”). Then, 50 μl of this diluted transfection reagent was added to the DNA, mixed, and incubated at RT for 20 min. Finally, 7 μl of this solution was added to a well of cells in the 96-well plate.
(§2) Renilla luciferase assay of cultured cells: 24 hours after the media change, plates were removed from the incubator, and equilibrated to RT for several minutes on a lab bench, and the media aspirated. Glo-lysis buffer (Promega, 100 μl, RT) was added, and the plates allowed to remain at room temp for at least 5 minutes. Then, the well contents were mixed by 50 μl trituration, and 20 μl of each well was mixed with 20 μl of Renilla-glo reagent in a solid-white 384-well plate. Ten minutes later, luminescence was measured using a Tecan machine with 500 msec read time. The luciferase activity was expressed as mean relative light unit (RLU)±SD.
The stem-loop sequences containing a wild type 9 nt U1 binding sequence were synthesized (IDT) and cloned into pRL-SV40 vector. The construct sequences were verified by DNA sequencing (Genewiz). HEK 293 cells were transfected and Renilla luciferase assay were performed as described in Example 1.

[2] = system: Renilla luciferase expression; assay: Renilla luciferase assay of HEK 293 cells transfected with U1_theo riboswitch constructs, with or without theophylline; assay type: cell-based; conditions: for induction fold of luciferase activity (theophylline treated / untreated): 3 mM theophylline, 20 to 24 hours; for change of luciferase activity after theophylline treatment (in words): with vs without theophylline
Method: as §1, §2
Oligonucleotides containing either the full length of sequences of the stem from the stem-loop structure and theophylline aptamer or the truncated sequences of the stem, were synthesized (IDT) and cloned into pRL-SV40 vector using the Gibson Assembly Cloning Kit (NEB). Construct sequences were verified by DNA sequencing (Genewiz).
Transfection and aptamer ligand treatment: HEK 293 cells were transfected as described in Example 1. Four hours after transfection, the media was aspirated, and new media with or without 3 mM theophylline was added. A Renilla luciferase assay was performed 20 to 24 hours after theophylline treatment as described in Example 1. The induction fold was expressed as the quotient of luciferase activity obtained in the presence of aptamer ligand divided by the value obtained in the absence of the aptamer ligand.
Oligos containing 4 copies of the U1_theo_8_1 sequence in tandem were synthesized (IDT) and cloned using Gibson strategy and cloning kit (NEB). HEK 293 cells were transfected and Renilla luciferase assay was performed as described in Example 4.

Molecule	suppressive effect of U1 site on luciferase gene expression (in words) [1]	reduction fold (luciferase activity of mutant construct / wild type construct) [1] [fold]	also measured
B1	functioned as well as the 10-nt U1 site	–	–
B2	–	272	–
B3	did not have any suppressive effect on luciferase gene expression	–	–
B4	–	50	inhibition of Renilla luciferase expression/activity [1]: 98%
B5	showed little effect on the suppressive function of U1 site	–	–
B6	–	–	induction fold of luciferase activity (theophylline treated / untreated) [2]: 1.3 fold; change of luciferase activity after theophylline treatment (in words) [2]: small increase in luciferase activity; change of luciferase activity after theophylline treatment (in words) ([2]; listed as 8): increased
B7	–	–	induction fold of luciferase activity (theophylline treated / untreated) [2]: 1.8 fold
B8	–	–	change of luciferase activity after theophylline treatment (in words) [2]: small increase in luciferase activity; change of luciferase activity after theophylline treatment (in words) ([2]; listed as 9): increased
B9	–	462	–
B10	completely abolished the suppressive effect of the U1 site	–	suppressive effect of U1 site on luciferase gene expression (in words) ([1]; listed as U1 87-9 stem loop): completely abolished the suppressive effect
B11	did not cause inhibition of luciferase gene expression	–	–
B12	–	12	inhibition of Renilla luciferase expression/activity [1]: 91%
